The results in this text go back to the DeepSol protein solubility set.

The data set is described as follows: soluble on expression in E. coli; label from the status in PepcDB or PDB records.
Take “PDGDFVDLAWSEDPHQARHKPRLVVFHGLEGSLHSPYAHGLIHAAMQRGWLGVVMHFRGCSGEPNRNHRIYHSGETEDGTWFLHWLKREFGPAPTAAVGYSLGGNMLGCLLAEEGDRCPLDAAVIVSAPFMLEACSYHMDKGFSRVYQRYLLNLLKANASRKLKAYPGSLPVDLRQLKGMRRIREFDDMITAKIHGFADALDYYRQCSAMPRLSDITKPTLIIHAKDDPFMDHHSIPPQEQLPANVEYQLTEQGGHVGFVSGTLRKPEMWLERRIPDWLNRWLE”: the “soluble on expression in E. coli” value is recorded as “not soluble”.

Take “MFTGIINHCGEIRSMEALPDHTVLSIDTQFSDLQLGESIAIDGICVTVTQKKLGSFSCDLSPETLACTKARDYKIGSRINLERALRLTDRLGGHFVSGHVDQTAILESQKKHAEFIQMDFKNSSEERWNYLIPKGSVAVNGVSLTVNSVAGDYFSVMLIPHTLEHTNLNDLKEGQIVNIEFDLITKIIVQKTREALSHAKTI”: the “soluble on expression in E. coli” value is reported as “soluble”.

As for “MAHHHHHHMKQVKAAFEANKRVYESVLLTFKGVDGYDVYNCSVPFSYKGKTHIYGRVEKRDIWAASHVRLFEETGKDEFTAVPELSWELEDPYIAKINNEMIFGGTRVRKNGNAILSYYGYFYRGTPDELTYFTRGPGCMKDIRVLQLQDGRLGVFSRPRVGRKASIGFVILNSIDELGAEVIAKAPPLDILSENAWGGVNQAYLLSSGKVGCIGHYSYEDTNEKQQPQSVYVNYAFVLDPQSRAITGAKIIGTKSCYPPCEPKVPLLADCVFASGIVMRSDGKVDLYSGVGDSHEGRITIDYPFKGHGTIIGDLHFPMASSL”, the “soluble on expression in E. coli” value is “soluble”.

Take “MPPITQQATVTAWLPQVDASQITGTISSLESFTNRFYTTTSGAQASDWIASEWQALSASLPNASVKQVSHSGYNQKSVVMTITGSEAPDEWIVIGGHLDSTIGSHTNEQSVAPGADDDASGIAAVTEVIRVLSENNFQPKRSIAFMAYAAEEVGLRGSQDLANQYKSEGKNVVSALQLDMTNYKGSAQDVVFITDYTDSNFTQYLTQLMDEYLPSLTYGFDTCGYACSDHASWHNAGYPAAMPFESKFNDYNPRIHTTQDTLANSDPTGSHAKKFTQLGLAYAIEMGSATGDTPTPGNQ”: the “soluble on expression in E. coli” value is given as “soluble”.

For “MAHHHHHHMVCRSKRASSFRHRVVHACVTEQRVLPSCRIHVVLRNFSADFSSLSPRCHYTSAGLLLHPSPLPPPSSTSSRLSTSIPPFRFTRAESSAAVFSMSIGTDYLSAMLNYNGCLQERILRRLLIIENETDSLLALRCALVPLQTPTRKRKRHTEPVAAQGTSFNVDVDTTRHRWSTELCEALNDEAAKANCIASLCPPAKERWCAVAAALRRAGHPSFTPYELFTKYKEMHSDSRPFALSEARFVCQYVQEHGGDWQGLCQALRQRLGHVRSPFQVAQQYRQRLRCAFVENRLTSSQLLTLLADLPASPQDRDFAALSVEAQRFTSHKTLQVSPLYLKRELEPLDFAARVPTCHHLYWKLVNLLCNFTLSHPNRLHAFQHRMPFCYQQRSLADLARSLQCEAAELQERVVHALLRLSRPPEALNYEECSKKLFGTVCGAQLIYQISEKLHEKDI”, the “soluble on expression in E. coli” value is given as “soluble”.

Regarding “MYNIGDKIVYPMHGAGVIESIEEREILGKKQSYYVVKIPIGEMKVLIPIKNVDGIGIREVISEEDADKVFLILKNKALPSNTNWNKRYRENMSKIKSGNIFEVADVVRCLMLRDKLKGLSTGEKKMLNSAKQILISELVLAKNMNPMEIEGMIDKYIS”, the “soluble on expression in E. coli” value is recorded as “soluble”.

Consider “MAHHHHHHMAAMLRLTFALRLSSKQLSHGPLATHTRKQSFRQSKTALQVSRLRSQTQRANFNLQQELNRDFGARQYAFAQGRRSMQRAAEDLMYDRAYRAERHRGRAGEVYRTTKDRAAEVATARQLLQMQESTRRLMKKGRTQRVEAFRAQKQWNR”, for which the “soluble on expression in E. coli” value is given as “not soluble”.

Consider “SGDRSMVEVLADHPGELVRTDSPNFLSSVLPTHWRSNKTLPIAFKVVALGDVPDGTLVTVMAGNDENYSAELRNATAAMKNQVARFNDLRFVGRSGRGKSFTLTITVFTNPPQVATYHRAIKITVDGPREPRRHRQKLDD”, for which the “soluble on expression in E. coli” value is recorded as “soluble”.

With “MKTPRLPIAIQQAVMRRLRENLAQANLKLDRHYPEPKLVYTQRGTSAGTAWLESYEIRLNPVLLLENIDTFIAEVVPHELTHLLVWKHFGRKAPHGKEWKWMMESVLGVPARRTHQFALQSVRRNTFPYHCQCQQHQLTVRRHNRVVRGEAVYRCVHCGEPLVAGLEHHHHHH”, the “soluble on expression in E. coli” value is “not soluble”.

As for “MVAQNSVVVIGASGFGRESLDVLEAMKEAGHSLEIIGVVDDNPAAINLQRLAERKIEYLGTLKEWIEGSPKSCKYVLAIGNPTIRHKLSALLDKSGFDAFTAVHPSAVIGSQVVFGSGAVVCSGAVISTNVRLGVHVHINPNVTIGHDSILEDYVSINPAATISGEVLIMEETLIGAAATVLQGLTIGNRSLVGASSCVTKDISAGKVVKGIPARLEHHHHHH”, the “soluble on expression in E. coli” value is listed as “soluble”.

“SAETEALSKLREDFRMQNKSVFILGASGETGRVLLKEILEQGLFSKVTLIGRRKLTFDEEAYKNVNQEVVDFEKLDDYASAFQGHDVGFCCLGTTRGKAGAEGFVRVDRDYVLKSAELAKAGGCKHFNLLSSKGADKSSNFLYLQVKGEVEAKVEELKFDRYSVFRPGVLLCDRQESRPGEWLVRKFFGSLPDSWARGHSVPVVTVVRAMLNNVVRPRDKQMELLENKAIHDLGKAHGSLKP”: the “soluble on expression in E. coli” value is recorded as “soluble”.

For “MWDKSLVFTFFRRRFGMALSTFKREHIKKNLRNDEYDLVIIGGGITGAGIALDASERGMKVALVEMQDFAQGTSSRSTKLVHGGLRYLKQFQIGVVAETGKERAIVYENGPHVTTPEWMLLPMHKGGTFGKFSTSIGLGMYDRLAGVKKSERKKMLSKKETLAKEPLVKKEGLKGGGYYVEYRTDDARLTIEVMKRAAEKGAEIINYTKSEHFTYDKNQQVNGVKVIDKLTNENYTIKAKKVVNAAGPWVDDVRSGDYARNNKKLRLTKGVHVVIDQSKFPLGQAVYFDTEKDGRMIFAIPREGKAYVGTTDTFYDNIKSSPLTTQEDRDYLIDAINYMFPSVNVTDEDIESTWAGIRPLIYEEGKDPSEISRKDEIWEGKSGLLTIAGGKLTGYRHMAQDIVDLVSKRLKKDYGLTFSPCNTKGLAISGGDVGGSKNFDAFVEQKVDVAKGFGIDEDVARRLASKYGSNVDELFNIAQTSQYHDSKLPLEIYVELVYSIQQEMVYKPNDFLVRRSGKMYFNIKDVLDYKDAVIDIMADMLDYSPAQIEAYTEEVEQAIKEAQHGNNQPAVKELEHHHHHH”, the “soluble on expression in E. coli” value was “soluble”.

In the case of “MDNPVTFSDITLLNTLATCANMTTDEVFKDFKIMANKKILKNHKYEIYYSESEKSWRTYLPDETKPNKRRPVKRKSKENLEKEIIRFYIEKQKAENRQNVTLEELYAEWLLYKRDYTSVKAKTIQEYVSEWNRFFKDTELVKMKIGEIKPITLIRFFREATKDRQFTHKRVSNARSVLNGIMSYAIEEEIISHNPVSDVNFKQFTYKPVEVQSDNVFSRDDTHKLLNYLRCIIEPYSLAIQLSFYLFIRVGETKAIRWEDIDYNNRLVYFHRQATCERTLNDDLTFSSRKVKVVNQMKGNTSHGFRKQFLTDEALKILHKAKELNPNGIYVFEPNGEIMTTDSFNRRLKKYCKEAGVPYHSSHKIRFYNASTAFDGNNLTTLSYLMGHSETATTLHYLRNVNKRKNDRLAFQNLGISS”, the “soluble on expression in E. coli” value was “not soluble”.

For “GSKEKLKEIKLLVCNIDGCLTNGHIYVSGDQKEIISYDVKDAIGISLLKKSGIEVRLISERACSKQTLSALKLDCKTEVSVSDKLATVDEWRKEMGLCWKEVAYLGNEVSDEECLKRVGLSAVPADACSGAQKAVGYICKCSGGRGAIREFAEHIFLLIEKVNNSCQK”, the “soluble on expression in E. coli” value was “soluble”.

On to “MGHHHHHHSHMAALASSLIRQKREVREPGGSRPVSAQRRVCPRGTKSLCQKQLLILLSKVRLCGGRPARPDRGPEPQLKGIVTKLFCRQGFYLQANPDGSIQGTPEDTSSFTHFNLIPVGLRVVTIQSAKLGHYMAMNAEGLLYSSPHFTAECRFKECVFENYYVLYASALYRQRRSGRAWYLGLDKEGQVMKGNRVKKTKAAAHFLPKLLEVAMYQEPSLHSVPEASPSSPPAP”, for which the “soluble on expression in E. coli” value was “soluble”.

Consider “MAHHHHHHMSEINIIKAFGILLCRLKKYNPVTTGDINKFEFLFLKASYADKHWTPPKGLHENNESGLETAVRETLEETGINKDKYKLLNYQKTLKYNVKDKPKETTYYLAMLLNNEENVILSDEHTDYKWIGSHESDTYNLPESLADLLKEAEEFLNKEQL”, for which the “soluble on expression in E. coli” value is recorded as “soluble”.
